Biological target: c-Src SH2
Assay: SH2 binding enrichment of the phosphorylated peptide, bacterial display (enrichment ratio); higher = better substrate or ligand; peptides without Tyr show the background
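Also: peptide library displayed on the E. coli surface as eCPX fusions, selected cells deep-sequenced, score is each peptide's frequency after selection divided by its frequency in the input.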

| SH2 binding enrichment | Sequence |
| --- | --- |
| 0.549 | QWRTKYEMDAI [MYH7_Y1375_T1377M] |
| 0.608 | GGCQEYTGAPY [NAXD_Y85] |
| 1.52 | CITIHYNFMCN [TP53_Y234_T230I_YF] |
| 0.448 | QLQTTYPSSDN [MAX_Y115_N114T] |
| 0.476 | FTGDIYSSSNL [LZTR1_Y141_N143S_YF] |
| 0.544 | AFPGEYIPTVF [RAC1_Y32] |
| 0.668 | VERRVYAEDPF [PCCA_Y401_C398R_YF] |
| 1.19 | IHADIYRWFNI [MARS1_Y344] |
| 0.919 | YGAHNHHPLPV [OAT_Y55_Y55H] |
| 0.507 | SSPVPYLSPET [TJP1_Y931] |
| 0.56 | ADTETYLLEKS [MYH7_Y266_I263T] |
| 1.18 | KFDLMYAKWAF [TUBA3E_Y399] |

More lines, now with the values behind:

| Sequence | SH2 binding enrichment |
| --- | --- |
| KSEKVYTRHGV [FLOT1_Y56] | 0.579 |
| KFLVGYEMLAQ [GALT_Y339_M336L] | 2.72 |
| QPGDICHQTWA [GBA_Y244_Y244C] | 0.732 |
| VIERSYTSADG [DHCR7_Y382_C380R] | 1.39 |
| KVKGEYDMTVP [AHNAK_Y964] | 0.499 |
| SVQVEYMKTIL [GLYATL2_Y127_D126E] | 0.72 |
| EKLQQYLAPGM [EPHB3_Y600_I601L] | 0.564 |
| DVAKEYGHLLP [HRC_Y99_S96A] | 0.429 |
| KACNPYKPPGP | 0.76 |
| VFGVSYDEYRY [CFTR_Y512_I507V] | 1.38 |
| NFFEFYVDDPP [GCHFR_Y48_YF] | 0.533 |
| RQGKDYVGAIP [KDR_Y951] | 0.488 |
| STASGYSDVTD [DTX2_Y425] | 3.68 |
| AGQEDCDRLRP [CDC42_Y64_Y64C] | 0.548 |
| VGNPAYRSFSN [IL4R_Y497_A492V] | 0.405 |
| GEIQEYGAPLD [ABCC1_Y1508_S1512L] | 0.454 |
| EFISESCGEII [EZH2_Y641_Y641S] | 0.532 |
| LRYDVYGGENE [STOX1_Y610_E608D] | 0.875 |
| LDLSFYPTSSS [EMD_Y182_YF] | 0.417 |
| FKELVYETVRV [FSHB_Y76] | 0.77 |
| TSSAIYMNLAS [GATAD2B_Y317] | 1.4 |

Biological target: SHP2-C SH2
Assay: as above

| SH2 binding enrichment | Sequence |
| --- | --- |
| 0.522 | QWRTKYEMDAI [MYH7_Y1375_T1377M] |
| 0.748 | GGCQEYTGAPY [NAXD_Y85] |
| 1.43 | CITIHYNFMCN [TP53_Y234_T230I_YF] |
| 0.73 | QLQTTYPSSDN [MAX_Y115_N114T] |
| 0.567 | FTGDIYSSSNL [LZTR1_Y141_N143S_YF] |
| 0.723 | AFPGEYIPTVF [RAC1_Y32] |
| 0.777 | VERRVYAEDPF [PCCA_Y401_C398R_YF] |
| 1.17 | IHADIYRWFNI [MARS1_Y344] |
| 1.05 | YGAHNHHPLPV [OAT_Y55_Y55H] |
| 0.66 | SSPVPYLSPET [TJP1_Y931] |
| 0.785 | ADTETYLLEKS [MYH7_Y266_I263T] |
| 0.919 | KFDLMYAKWAF [TUBA3E_Y399] |

Continued, sequence first:

| Sequence | SH2 binding enrichment |
| --- | --- |
| KSEKVYTRHGV [FLOT1_Y56] | 0.824 |
| KFLVGYEMLAQ [GALT_Y339_M336L] | 1.06 |
| QPGDICHQTWA [GBA_Y244_Y244C] | 0.603 |
| VIERSYTSADG [DHCR7_Y382_C380R] | 0.564 |
| KVKGEYDMTVP [AHNAK_Y964] | 0.692 |
| SVQVEYMKTIL [GLYATL2_Y127_D126E] | 0.777 |
| EKLQQYLAPGM [EPHB3_Y600_I601L] | 0.559 |
| DVAKEYGHLLP [HRC_Y99_S96A] | 0.604 |
| KACNPYKPPGP | 0.893 |
| VFGVSYDEYRY [CFTR_Y512_I507V] | 0.72 |
| NFFEFYVDDPP [GCHFR_Y48_YF] | 0.594 |
| RQGKDYVGAIP [KDR_Y951] | 0.79 |
| STASGYSDVTD [DTX2_Y425] | 1.11 |
| AGQEDCDRLRP [CDC42_Y64_Y64C] | 0.945 |
| VGNPAYRSFSN [IL4R_Y497_A492V] | 0.547 |
| GEIQEYGAPLD [ABCC1_Y1508_S1512L] | 0.734 |
| EFISESCGEII [EZH2_Y641_Y641S] | 0.716 |
| LRYDVYGGENE [STOX1_Y610_E608D] | 0.675 |
| LDLSFYPTSSS [EMD_Y182_YF] | 0.686 |
| FKELVYETVRV [FSHB_Y76] | 0.961 |
| TSSAIYMNLAS [GATAD2B_Y317] | 1.46 |

Reference: the supplement of paper PMC10065799, “High-throughput profiling of sequence recognition by tyrosine kinases and SH2 domains using bacterial peptide display” (eLife, 2023)
